Reference: patent publication US20240100176A1 (Eli Lilly, published 2024)

T1: human IL-4Rα on cells (human PBMC B cells and CD4+ T cells, Daudi cells, HEK-Blue IL-4/IL-13 cells, myeloid … (human, UniProt P24394 26-825))
T1 sequence: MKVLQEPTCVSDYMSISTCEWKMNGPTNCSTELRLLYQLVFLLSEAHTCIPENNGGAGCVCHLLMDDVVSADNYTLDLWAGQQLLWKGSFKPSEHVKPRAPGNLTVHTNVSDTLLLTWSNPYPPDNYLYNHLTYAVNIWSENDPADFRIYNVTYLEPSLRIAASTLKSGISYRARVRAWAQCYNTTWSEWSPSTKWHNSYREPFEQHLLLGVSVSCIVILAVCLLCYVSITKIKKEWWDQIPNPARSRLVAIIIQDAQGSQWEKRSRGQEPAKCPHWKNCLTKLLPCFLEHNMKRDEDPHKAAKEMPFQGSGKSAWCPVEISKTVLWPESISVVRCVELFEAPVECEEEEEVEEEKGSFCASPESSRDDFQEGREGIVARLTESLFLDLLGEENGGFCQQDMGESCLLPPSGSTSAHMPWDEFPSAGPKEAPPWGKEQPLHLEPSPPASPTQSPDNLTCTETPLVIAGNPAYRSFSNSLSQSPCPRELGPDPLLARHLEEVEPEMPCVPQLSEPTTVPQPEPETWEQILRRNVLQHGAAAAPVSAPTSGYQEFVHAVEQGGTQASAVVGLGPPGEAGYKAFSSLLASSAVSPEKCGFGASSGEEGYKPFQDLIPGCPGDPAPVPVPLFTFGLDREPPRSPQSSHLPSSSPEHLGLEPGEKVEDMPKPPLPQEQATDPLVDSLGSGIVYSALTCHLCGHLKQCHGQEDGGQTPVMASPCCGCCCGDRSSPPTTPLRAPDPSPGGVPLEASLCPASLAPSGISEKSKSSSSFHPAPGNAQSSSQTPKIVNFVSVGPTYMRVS


Experiments:
[1] = target: T1, human IL-4Rα on cells (human PBMC B …); test: flow cytometry on human PBMCs, CD20 B cells, Alexa Fluor 647 labelled antibody, percent IL-4Rα positive cells
Description: Example 3b. Binding to B cells and T cells: Binding of the exemplified anti-human IL-4Rα antibodies to B cells and T cells was tested in a Fluorescence Activated Cell Sorting (FACS) assay. […] Freshly isolated cells PBMCs were resuspended at 2×10⁶ cells/mL and allowed to rest for 15 minutes at room temperature, then plated at 100 μL/well into a round bottom 96-well plate (COSTAR®) and washed with FACS buffer (PBS containing 2% fetal bovine serum from Corning®). Exemplified anti-human IL-4Rα antibodies and the respective control IgG antibodies conjugated to Alexa Fluor® 647 according to manufacturer's protocol (Thermo Fisher Scientific) were added to the wells at 66.67 nM and diluted 4-fold in duplicate. Equivalent volume of 2× antibody cocktail containing: Human TruStain FcX™. FITC anti-human CD3 Antibody, Alexa Fluor® 700 anti-human CD4 Antibody (all from Biolegend®) and CD20 Monoclonal Antibody (2H7), PerCP-Cyanine5.5 (Thermo Fisher Scientific) was then added to the wells. Cells were incubated at 4° C. for 30 minutes, washed twice with FACS buffer and resuspended in a final volume of 100 μL FACS buffer. Viability dye, Sytox™ blue (Thermo Fisher Scientific), was added and the samples were analyzed via a flow cytometer (LSRFortessa™ X-20; BD BIOSCIENCES). Data analysis was performed using FlowJo software and statistical analysis was performed using GraphPad Prism 9. […]

[2] = target: T1, human IL-4Rα on cells (human PBMC B …); test: cell-based or functional assay
[3] = target: T2, hexahistidine tagged human IL-4Rα ECD T108R (human, UniProt P24394 26-232); test: capture ELISA: Ab1 on anti-human IgG Fc, His-tagged receptor at 0.2 µg/mL, anti-His HRP
T2 construct: also called D108R; not shown: hexahistidine tag

[4] = target: T3, human FcγRIIIA_158V (CD16a) extracellular domain (human, UniProt P08637 17-208); test: SPR (Biacore), antibody captured on protein A, FcγR ECD as analyte, steady state, 25 °C
T3 construct: extracellular domain
Description: Unreacted sites were blocked with a 7 minute injection of ethanolamine at 10 μL/minute. Injections of 2×10 μL of glycine, pH 1.5, was used to remove any noncovalently associated protein. Running buffer was 1×HBS-EP+(TEKNOVA, P/N H8022). The FcγR extracellular domains (ECDs)-FcγRI (CD64), FcγRIIA_131R, and FcγRIIA_131H (CD32a), FcγRIIIA_158V, FcγRIIIA_158F (CD16a), and FcγRIIb (CD32b) were produced from stable CHO cell expression and purified using IgG Sepharose and size exclusion chromatography. For FcγRI binding, antibodies were diluted to […] in running buffer, and approximately 150 RU of each antibody was captured in FCs 2 through 4 (RU captured). FC1 was the reference FC, therefore no antibody was captured in FC1. […] Duplicate injections of each concentration were injected over all FCs at 40 μL/minute for 120 seconds followed by a 1200 second dissociation phase. Regeneration was performed by injecting 15 μL of 10 mM glycine, pH 1.5, at 30 μL/minute over all FCs. Reference-subtracted data was collected as FC2 FC1, FC3-FC1, and FC4-FC1 and the measurements were obtained at 25° C. The affinity (KD) was calculated using either steady state equilibrium analysis with the Scrubber 2 Biacore Evaluation Software or a “1:1 (Langmuir) binding” model in BIA Evaluation. For FcγRIIa, FcγRIIb, and FcγRIIIa binding, antibodies were diluted to 5 μg/mL in running buffer, and approximately 500 RU of each antibody was captured in FCs 2 through 4). FC1 was the reference FC. […] Duplicate injections of each concentration were injected over all FCs at 40 μL/minute for 60 seconds followed by a 120 second dissociation phase. Regeneration was performed by injecting 15 μL of 10 mM glycine, pH 1.5, at 30 μL/minute over all FCs. Reference-subtracted data was collected as FC2-FC1, FC3-FC1, and FC4-FC1, and the measurements were obtained at 25° C. The affinity (KD) was calculated using the steady state equilibrium analysis with the Scrubber 2 Biacore Evaluation Software. Each receptor was assayed at least two times.

T3 sequence (P08637 17-208 F176V): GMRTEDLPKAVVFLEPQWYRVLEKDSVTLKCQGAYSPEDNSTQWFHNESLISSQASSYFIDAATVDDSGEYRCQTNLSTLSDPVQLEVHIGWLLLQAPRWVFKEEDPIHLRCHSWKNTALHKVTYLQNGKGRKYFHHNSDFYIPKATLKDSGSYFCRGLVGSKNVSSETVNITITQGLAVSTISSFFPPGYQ
T2 sequence (P24394 26-232 T133R): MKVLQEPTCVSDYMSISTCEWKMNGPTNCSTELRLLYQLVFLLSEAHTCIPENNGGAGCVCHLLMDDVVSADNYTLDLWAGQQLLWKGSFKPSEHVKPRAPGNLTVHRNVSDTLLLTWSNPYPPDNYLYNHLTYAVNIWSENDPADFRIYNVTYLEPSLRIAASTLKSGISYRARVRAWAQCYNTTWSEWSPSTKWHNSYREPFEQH

Row | Binder | EC50 [1] [nM] | IL-4 IC50 (nM): inhibition of IL-4 induced SEAP activity in HEK-Blue IL-4R and IL-13R expressing cells [2] [nM] | IL-13 IC50 (nM): inhibition of IL-13 induced SEAP activity in HEK-Blue IL-4R and IL-13R expressing cells [2] [nM] | ELISA (OD450) [3] [OD450] | Kd [4] [nM]
1 | anti-human IL-4Rα antibody Ab1 (antibody, human IgG4 S228P, kappa, human kappa light chain; also called anti-human IL-4Rα Ab1; unconjugated Ab1) heavy: QVQLVESGGGLVQPGGSLRLSCVASGFTFSHSSMNWVRQAPGKGLEWVSYISRATGAVYYADSVKGRFTISRDNAKNSLYLQMNSLRDEDTAVYYCAREPVFDYWGQGTLVTVSSASTKGPCVFPLAPCSRSTSESTAALGCLVKDYFPEPVTVSWNSGALTSGVHTFPAVLQSSGLYSLSSVVTVPSSSLGTKTYTCNVDHKPSNTKVDKRVESKYGPPCPPCPAPEFLGGPSVFLFPPKPKDTLMISRTPEVTCVVVDVSQEDPEVKFNWYVDGVEVHNAKTKPREEQFNSTYRVVSVLTVLHQDWLNGKEYKCKVSNKGLPSSIEKTISKAKGQPREPQVYTLPPSREEMTKNQVSLTCLVKGFYPSDICVEWESNGQPENNYKTTPPVLDSDGSFFLYSRLTVDKSRWQQGNVFSCSVMHEALHNHYTQKSLSLSLG light: DIQMTQSPSAMSASVGDRVTITCRASQDISNYLAWFQQKPGKVPTRLIYAASSLQSGVPSRFSGSGSGTEFTLTISSLQPEDFATYYCLQWSSYPRTFGQGTKVEIKRTVAAPSVFIFPPSDEQLKSGTASVVCLLNNFYPREAKVQWKVDNALQSGNSQESVTEQDSKDSTYSLSSTLTLSKADYEKHKVYACEVTHQGLSSPVTKSFNRGEC | 0.15 | 0.08 | 0.67 | 1.82 | 
2 | anti-human IL-4Rα Ab1 GC conjugate of Example 1b (n=4) (antibody, human IgG4 S228P, kappa, glucocorticoid receptor agonist payload-linker (GC-L, Preparation 8) conjugated to the engineered cysteines at the 124 and 378 position of the heavy chain (EU numbering); n is 4 (average DAR 4.17 by RP-HPLC, 3.85 by TOF MS)) heavy: QVQLVESGGGLVQPGGSLRLSCVASGFTFSHSSMNWVRQAPGKGLEWVSYISRATGAVYYADSVKGRFTISRDNAKNSLYLQMNSLRDEDTAVYYCAREPVFDYWGQGTLVTVSSASTKGPCVFPLAPCSRSTSESTAALGCLVKDYFPEPVTVSWNSGALTSGVHTFPAVLQSSGLYSLSSVVTVPSSSLGTKTYTCNVDHKPSNTKVDKRVESKYGPPCPPCPAPEFLGGPSVFLFPPKPKDTLMISRTPEVTCVVVDVSQEDPEVKFNWYVDGVEVHNAKTKPREEQFNSTYRVVSVLTVLHQDWLNGKEYKCKVSNKGLPSSIEKTISKAKGQPREPQVYTLPPSREEMTKNQVSLTCLVKGFYPSDICVEWESNGQPENNYKTTPPVLDSDGSFFLYSRLTVDKSRWQQGNVFSCSVMHEALHNHYTQKSLSLSLG light: DIQMTQSPSAMSASVGDRVTITCRASQDISNYLAWFQQKPGKVPTRLIYAASSLQSGVPSRFSGSGSGTEFTLTISSLQPEDFATYYCLQWSSYPRTFGQGTKVEIKRTVAAPSVFIFPPSDEQLKSGTASVVCLLNNFYPREAKVQWKVDNALQSGNSQESVTEQDSKDSTYSLSSTLTLSKADYEKHKVYACEVTHQGLSSPVTKSFNRGEC |  |  |  |  | 4920
